Where two headings read alike, the source gives them in different places.
How the values were obtained:
Assay in all cases: X-ray crystallography
[1] = target: T1, DNA polymerase beta (pol β), wild-type (human, UniProt P06746 1-335)
[2] = target: T1, DNA polymerase beta (pol β), wild-type; remark: listed apart in the source
[3] = target: T1, DNA polymerase beta (pol β), wild-type; remark: listed apart in the source

B1: 1-nt gapped DNA, templating C (dsDNA)
DNA 1: CCGACCGCGCATCAGC
DNA 2: GCTGATGCGC
DNA 3: GTCGC
modifications: 5'-phosphate on downstream strand
B1: binds [1].

B2: 1-nt gapped DNA, templating A (dsDNA)
DNA 1: CCGACAGCGCATCAGC
DNA 2: GCTGATGCGC
DNA 3: GTCGC
modifications: 5'-phosphate on downstream strand
B2: binds [2].

B3: 1-nt gapped DNA, templating G (dsDNA)
DNA 1: CCGACGGCGCATCAGC
DNA 2: GCTGATGCGC
DNA 3: GTCGC
modifications: 5'-phosphate on downstream strand
B3: binds [3].
